Data reported in doi:10.1101/2020.07.06.190884.

How the values were obtained:
[1] = target: His-tagged PrgU (Enterococcus faecalis (plasmid pCF10)); experiment: GEMMA
[2] = target: His-tagged PrgU (Enterococcus faecalis (plasmid pCF10)); experiment: SEC-MALS

Question: How did the stoichiometry N [1] turn out when His-tagged PrgU (natural protein) was run?
Answer: Its stoichiometry N is 2.

Question: And the stoichiometry N [2]?
Answer: Its stoichiometry N is 2.
